These results are taken from patent publication US20140120095A1.

Holding throughout (test): cell-based or functional assay
One assay deals with VEGF (UniProt P15692).
For assay [1], the target named is VEGF (used to stimulate HUVEC cells) (UniProt P15692).
For assay [2], the target named is DII4-His (C-terminal His-tagged human DII4, amino acid 27-524) (human) (UniProt Q9NR61).
DII4-His (C-terminal His-tagged human DII4, amino acid 27-524) (human), sequence (Q9NR61 25-522): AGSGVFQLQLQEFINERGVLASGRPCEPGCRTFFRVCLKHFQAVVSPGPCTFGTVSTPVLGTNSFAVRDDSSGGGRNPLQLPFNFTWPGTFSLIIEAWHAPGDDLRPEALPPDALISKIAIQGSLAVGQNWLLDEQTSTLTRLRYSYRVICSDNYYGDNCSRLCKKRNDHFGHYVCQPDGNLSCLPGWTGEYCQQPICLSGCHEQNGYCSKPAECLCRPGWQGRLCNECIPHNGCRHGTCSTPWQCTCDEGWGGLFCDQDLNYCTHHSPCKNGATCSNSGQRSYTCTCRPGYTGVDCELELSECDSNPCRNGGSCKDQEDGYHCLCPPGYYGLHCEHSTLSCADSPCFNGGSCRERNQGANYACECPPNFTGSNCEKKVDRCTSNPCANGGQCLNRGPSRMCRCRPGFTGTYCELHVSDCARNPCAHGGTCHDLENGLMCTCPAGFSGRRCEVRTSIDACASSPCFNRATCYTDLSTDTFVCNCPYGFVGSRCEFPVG

VEGF, sequence (P15692 other isoform, or with tags, fused parts or gaps limits assumed): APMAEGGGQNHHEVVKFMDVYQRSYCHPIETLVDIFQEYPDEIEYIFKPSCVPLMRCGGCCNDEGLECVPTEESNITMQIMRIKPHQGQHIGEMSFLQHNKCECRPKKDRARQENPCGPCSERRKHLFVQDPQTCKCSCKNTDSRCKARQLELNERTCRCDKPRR
VEGF (used to stimulate HUVEC cells), sequence (P15692 other isoform, or with tags, fused parts or gaps limits assumed): as above

B1: VEGFBII23B04 (VHH, not shown: small tags and cut ends)
VHH: EVQLVESGGGLVQTGDSLRLSCEVSGRTFSSYSMGWFRQAQGKEREFVVAISKGGYKYDSVSLEGRFTISKDNAKNTVYLQINSLKPEDTAVYYCASSRAYGSSRLRLADTYEYWGQGTQVTVSS
In the assay with VEGF, B1 yielded a % inhibition, VEGF HUVEC Erk phosphorylation assay, +HSA of 93%; a % inhibition, VEGF HUVEC Erk phosphorylation assay, -HSA of 91%; an IC50 (nM), VEGF HUVEC Erk phosphorylation assay, +HSA of 0.6 nM; an IC50 (nM), VEGF HUVEC Erk phosphorylation assay, -HSA of 0.69 nM.

B2: VEGFBII23A06 (VHH, not shown: small tags and cut ends)
VHH: EVQLVESGGGLVQPGDSLKLSCAFSGRTFSSYSMGWFRQAQGKEREFVVAISSGGFIYDAVSLEGRFTISRDNTKNTVYLQTPSLKPEDTAVYYCAASRAYGSSRLRLADTYDYWGQGTQVTVSS
In assay [1], B2 returned a % inhibition, VEGF HUVEC proliferation assay of 73% and an IC50, VEGF HUVEC proliferation assay of 4.29 nM.

B3: DLLBII129B05 (VHH, not shown: small tags and cut ends)
VHH: EVQLVESGGGLVQAGGSLRLSCAASGRTFSSYAMAWYRQAPGKEREYVAAIRWSGGTAYYADSVQGRFTISRDNAKNTVYLQMNSLKPEDTAVYYCANRAPDTRLAPYEYDHWGQGTQVTVSS
As to B3, in assay [2], the IC50 (nM), DII4-mediated HUVEC proliferation assay, +HSA amounted to 3.52 nM and the IC50 (nM), DII4-mediated HUVEC proliferation assay, -HSA was 2.32 nM.
